{"source": "patent US20240092841A1", "test_in_all_cases": "co-IP with agarose-bound AvFc from H460 whole-cell lysate, mass spectrometry", "key": {"[1]": {"molecular_target": "Protocadherin Fat 1 (human) (UniProt Q14517)"}, "Filamin-A (human)": {"molecular_target": "Filamin-A (human) (UniProt P21333)"}, "[2]": {"molecular_target": "Attractin (O75882-2) (human) (UniProt O75882)"}, "[3]": {"molecular_target": "Neutral amino acid transporter B (0) (human) (UniProt Q15758)"}, "[4]": {"molecular_target": "Insulin-like growth factor 1 receptor (human) (UniProt P08069)"}, "[5]": {"molecular_target": "Solute carrier family 2, facilitated glucose transporter member 1 (human) (UniProt P11166)", "sequence (P11166 whole entry)": "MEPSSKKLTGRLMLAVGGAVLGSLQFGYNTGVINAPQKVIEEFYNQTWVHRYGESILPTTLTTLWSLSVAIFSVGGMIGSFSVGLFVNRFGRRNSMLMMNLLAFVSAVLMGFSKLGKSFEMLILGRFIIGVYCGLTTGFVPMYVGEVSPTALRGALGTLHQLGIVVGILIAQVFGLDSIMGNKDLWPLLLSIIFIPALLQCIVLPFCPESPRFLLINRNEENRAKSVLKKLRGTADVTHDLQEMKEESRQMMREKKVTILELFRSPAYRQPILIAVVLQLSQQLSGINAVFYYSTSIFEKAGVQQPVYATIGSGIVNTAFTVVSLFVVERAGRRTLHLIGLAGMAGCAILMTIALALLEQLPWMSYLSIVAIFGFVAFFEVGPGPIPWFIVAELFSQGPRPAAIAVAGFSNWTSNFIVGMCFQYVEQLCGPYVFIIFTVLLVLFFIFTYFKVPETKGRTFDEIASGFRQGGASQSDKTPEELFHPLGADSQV"}, "[6]": {"molecular_target": "Metal transporter CNNM4 (human) (UniProt Q6P4Q7)"}, "[7]": {"molecular_target": "Laminin subunit beta-2 (human) (UniProt P55268)", "sequence (P55268 33-1798 limits assumed)": "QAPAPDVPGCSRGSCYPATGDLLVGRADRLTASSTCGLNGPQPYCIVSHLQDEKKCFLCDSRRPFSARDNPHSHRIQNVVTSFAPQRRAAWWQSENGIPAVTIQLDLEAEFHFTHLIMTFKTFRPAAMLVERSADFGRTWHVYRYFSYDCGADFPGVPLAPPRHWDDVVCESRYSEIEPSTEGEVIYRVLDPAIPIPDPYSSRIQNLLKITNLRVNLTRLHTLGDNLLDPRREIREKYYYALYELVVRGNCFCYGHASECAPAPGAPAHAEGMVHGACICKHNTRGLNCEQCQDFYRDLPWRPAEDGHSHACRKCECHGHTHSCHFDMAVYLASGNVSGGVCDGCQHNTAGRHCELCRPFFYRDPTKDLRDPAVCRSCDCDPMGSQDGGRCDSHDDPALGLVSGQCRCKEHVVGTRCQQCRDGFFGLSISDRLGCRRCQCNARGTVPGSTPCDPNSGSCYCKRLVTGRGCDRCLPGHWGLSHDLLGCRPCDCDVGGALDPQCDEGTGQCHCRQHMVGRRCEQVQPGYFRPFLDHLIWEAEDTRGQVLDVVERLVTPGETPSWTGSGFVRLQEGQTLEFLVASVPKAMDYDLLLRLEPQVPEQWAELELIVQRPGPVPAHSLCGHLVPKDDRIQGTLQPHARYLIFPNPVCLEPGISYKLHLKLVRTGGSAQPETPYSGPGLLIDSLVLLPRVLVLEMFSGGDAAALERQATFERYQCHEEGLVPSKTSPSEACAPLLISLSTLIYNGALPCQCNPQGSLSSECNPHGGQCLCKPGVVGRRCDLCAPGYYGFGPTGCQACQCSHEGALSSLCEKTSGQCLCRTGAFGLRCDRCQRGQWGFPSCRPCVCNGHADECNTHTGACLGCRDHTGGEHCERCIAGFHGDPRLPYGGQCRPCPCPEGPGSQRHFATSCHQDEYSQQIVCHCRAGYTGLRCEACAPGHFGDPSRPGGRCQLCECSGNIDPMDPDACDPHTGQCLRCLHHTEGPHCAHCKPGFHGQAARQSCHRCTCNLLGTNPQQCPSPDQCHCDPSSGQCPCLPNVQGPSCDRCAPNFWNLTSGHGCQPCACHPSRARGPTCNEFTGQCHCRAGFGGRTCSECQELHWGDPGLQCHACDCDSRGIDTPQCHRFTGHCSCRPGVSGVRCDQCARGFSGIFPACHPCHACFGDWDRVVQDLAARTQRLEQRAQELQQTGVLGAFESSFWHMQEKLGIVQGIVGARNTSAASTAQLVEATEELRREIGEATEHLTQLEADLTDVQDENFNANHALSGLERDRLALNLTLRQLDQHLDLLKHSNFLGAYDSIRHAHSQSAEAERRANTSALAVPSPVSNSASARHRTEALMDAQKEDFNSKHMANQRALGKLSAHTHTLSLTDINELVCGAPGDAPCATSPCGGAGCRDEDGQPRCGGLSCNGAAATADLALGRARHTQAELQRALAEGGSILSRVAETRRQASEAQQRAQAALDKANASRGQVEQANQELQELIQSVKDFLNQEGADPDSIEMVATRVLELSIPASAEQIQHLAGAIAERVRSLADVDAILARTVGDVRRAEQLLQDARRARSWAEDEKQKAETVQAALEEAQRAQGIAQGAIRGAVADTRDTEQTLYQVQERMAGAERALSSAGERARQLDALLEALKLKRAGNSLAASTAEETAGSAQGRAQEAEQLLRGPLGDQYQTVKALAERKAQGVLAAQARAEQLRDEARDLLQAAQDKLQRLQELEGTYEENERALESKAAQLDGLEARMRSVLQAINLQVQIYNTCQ"}, "[8]": {"molecular_target": "Magnesium transporter protein 1 (human) (UniProt Q9H0U3)"}, "Nidogen-2 (human)": {"molecular_target": "Nidogen-2 (human) (UniProt Q14112)"}, "[9]": {"molecular_target": "Contactin-associated protein 1 (human) (UniProt P78357)"}, "Agrin (human)": {"molecular_target": "Agrin (human) (UniProt O00468)"}, "[10]": {"molecular_target": "Transmembrane protein 106B (human) (UniProt Q9NUM4)"}, "[11]": {"molecular_target": "Laminin subunit beta-1 (human) (UniProt P07942)"}, "[12]": {"molecular_target": "Scavenger receptor class B member 1 (human) (UniProt Q8WTV0)"}, "[13]": {"molecular_target": "Neural cell adhesion molecule L1 (human) (UniProt P32004)"}, "[14]": {"molecular_target": "Disintegrin and metalloproteinase domain-containing protein 9 (human) (UniProt Q13443)"}, "[15]": {"molecular_target": "Synaptonemal complex protein SC65 (human) (UniProt Q92791)"}, "Integrin alpha-3 (human)": {"molecular_target": "Integrin alpha-3 (human) (UniProt P26006)"}, "[16]": {"molecular_target": "Sortilin-related receptor (human) (UniProt Q92673)"}, "[17]": {"molecular_target": "Cation-dependent mannose-6-phosphate receptor (human) (UniProt P20645)"}, "[18]": {"molecular_target": "Prolow-density lipoprotein receptor-related protein 1 (human) (UniProt Q07954)"}, "Integrin beta-5 (human)": {"molecular_target": "Integrin beta-5 (human) (UniProt P18084)"}, "[19]": {"molecular_target": "Laminin subunit alpha-1 (human) (UniProt P25391)"}, "[20]": {"molecular_target": "Epidermal growth factor receptor (human) (UniProt P00533)"}, "[21]": {"molecular_target": "Endothelial protein C receptor (human) (UniProt Q9UNN8)"}, "[22]": {"molecular_target": "Transferrin receptor protein 1 (human) (UniProt P02786)"}, "[23]": {"molecular_target": "Solute carrier family 12 member 7 (human) (UniProt Q9Y666)"}, "Serpin H1 (human)": {"molecular_target": "Serpin H1 (human) (UniProt P50454)"}, "[24]": {"molecular_target": "CD109 antigen (Q6YHK3-4) (human) (UniProt Q6YHK3)"}, "[25]": {"molecular_target": "Cell cycle control protein 50A (human) (UniProt Q9NV96)"}, "[26]": {"molecular_target": "Urokinase plasminogen activator surface receptor (human) (UniProt Q03405)", "sequence (Q03405 other isoform, or with tags, fused parts or gaps limits assumed)": "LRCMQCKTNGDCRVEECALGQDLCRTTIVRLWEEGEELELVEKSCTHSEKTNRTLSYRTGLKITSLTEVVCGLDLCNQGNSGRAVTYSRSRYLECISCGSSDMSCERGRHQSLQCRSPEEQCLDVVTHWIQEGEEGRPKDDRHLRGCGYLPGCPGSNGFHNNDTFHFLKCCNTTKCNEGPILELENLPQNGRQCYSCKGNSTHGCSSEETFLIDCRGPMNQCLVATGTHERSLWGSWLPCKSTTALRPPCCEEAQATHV"}, "[27]": {"molecular_target": "ATP-binding cassette sub-family A member 2 (human) (UniProt Q9BZC7)", "sequence (Q9BZC7 other isoform, or with tags, fused parts or gaps limits assumed)": "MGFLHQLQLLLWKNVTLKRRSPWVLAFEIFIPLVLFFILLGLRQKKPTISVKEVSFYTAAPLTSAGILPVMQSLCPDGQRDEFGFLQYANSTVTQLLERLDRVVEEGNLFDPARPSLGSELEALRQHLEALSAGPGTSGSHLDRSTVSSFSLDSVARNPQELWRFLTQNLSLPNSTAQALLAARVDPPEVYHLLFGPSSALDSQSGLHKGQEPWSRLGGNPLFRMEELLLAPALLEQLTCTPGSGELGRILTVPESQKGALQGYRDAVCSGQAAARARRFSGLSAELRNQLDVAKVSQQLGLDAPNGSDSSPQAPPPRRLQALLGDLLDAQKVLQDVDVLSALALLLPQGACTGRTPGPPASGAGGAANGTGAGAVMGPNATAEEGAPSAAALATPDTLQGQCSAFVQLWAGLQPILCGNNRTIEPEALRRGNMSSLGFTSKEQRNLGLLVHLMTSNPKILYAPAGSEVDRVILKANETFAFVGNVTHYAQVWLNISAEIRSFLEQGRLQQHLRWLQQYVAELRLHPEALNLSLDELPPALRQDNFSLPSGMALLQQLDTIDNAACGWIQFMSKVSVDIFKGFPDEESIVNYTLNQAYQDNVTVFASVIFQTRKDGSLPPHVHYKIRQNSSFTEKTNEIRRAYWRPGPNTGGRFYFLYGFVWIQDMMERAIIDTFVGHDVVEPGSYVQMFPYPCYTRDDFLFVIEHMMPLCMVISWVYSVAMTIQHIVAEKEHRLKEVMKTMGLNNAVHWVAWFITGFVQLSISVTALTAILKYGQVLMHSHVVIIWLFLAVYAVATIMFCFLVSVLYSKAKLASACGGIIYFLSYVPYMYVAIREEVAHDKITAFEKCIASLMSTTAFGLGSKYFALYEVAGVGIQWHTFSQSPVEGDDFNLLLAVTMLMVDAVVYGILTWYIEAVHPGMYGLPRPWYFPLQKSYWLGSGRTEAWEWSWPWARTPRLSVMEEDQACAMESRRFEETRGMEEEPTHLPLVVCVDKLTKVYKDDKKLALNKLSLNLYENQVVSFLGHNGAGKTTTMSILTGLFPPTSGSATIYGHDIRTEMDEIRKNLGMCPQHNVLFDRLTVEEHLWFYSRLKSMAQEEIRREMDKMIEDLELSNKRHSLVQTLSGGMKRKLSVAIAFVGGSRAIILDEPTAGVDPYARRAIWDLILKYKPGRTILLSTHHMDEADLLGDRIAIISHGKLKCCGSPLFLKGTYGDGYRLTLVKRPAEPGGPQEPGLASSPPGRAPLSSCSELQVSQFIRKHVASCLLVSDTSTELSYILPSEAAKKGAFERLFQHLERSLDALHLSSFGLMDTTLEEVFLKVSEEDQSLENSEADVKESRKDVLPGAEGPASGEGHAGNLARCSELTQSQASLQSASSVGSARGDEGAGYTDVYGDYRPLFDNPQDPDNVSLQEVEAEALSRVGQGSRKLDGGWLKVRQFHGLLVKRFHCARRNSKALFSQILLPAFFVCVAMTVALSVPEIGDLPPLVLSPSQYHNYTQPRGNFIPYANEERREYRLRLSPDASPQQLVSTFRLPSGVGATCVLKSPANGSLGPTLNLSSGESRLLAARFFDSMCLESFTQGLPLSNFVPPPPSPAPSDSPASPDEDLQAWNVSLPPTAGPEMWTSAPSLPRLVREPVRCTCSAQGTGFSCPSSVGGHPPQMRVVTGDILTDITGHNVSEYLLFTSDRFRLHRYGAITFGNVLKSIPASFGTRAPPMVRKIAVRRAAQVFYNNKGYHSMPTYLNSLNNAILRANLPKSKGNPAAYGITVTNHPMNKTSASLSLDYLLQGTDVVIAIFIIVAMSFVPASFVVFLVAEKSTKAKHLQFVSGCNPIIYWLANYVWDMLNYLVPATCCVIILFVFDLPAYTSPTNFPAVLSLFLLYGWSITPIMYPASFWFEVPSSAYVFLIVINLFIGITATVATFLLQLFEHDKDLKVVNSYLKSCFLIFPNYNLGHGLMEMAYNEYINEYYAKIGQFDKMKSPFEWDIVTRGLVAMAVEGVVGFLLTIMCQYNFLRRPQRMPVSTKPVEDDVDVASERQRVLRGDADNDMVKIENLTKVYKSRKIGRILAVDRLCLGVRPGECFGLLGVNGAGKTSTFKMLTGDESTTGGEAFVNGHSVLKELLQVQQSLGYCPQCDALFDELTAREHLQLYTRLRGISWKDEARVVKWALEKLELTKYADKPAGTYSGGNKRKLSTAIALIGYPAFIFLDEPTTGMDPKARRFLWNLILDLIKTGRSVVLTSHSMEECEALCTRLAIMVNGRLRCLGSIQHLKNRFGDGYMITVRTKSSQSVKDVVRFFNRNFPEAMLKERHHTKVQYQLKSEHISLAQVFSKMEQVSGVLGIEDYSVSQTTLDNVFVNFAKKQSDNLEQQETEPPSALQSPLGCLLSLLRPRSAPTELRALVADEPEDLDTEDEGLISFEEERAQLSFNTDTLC"}, "[28]": {"molecular_target": "Laminin subunit gamma-1 (human) (UniProt P11047)"}, "[29]": {"molecular_target": "Tetratricopeptide repeat protein 13 (Q8NBP0-2) (human) (UniProt Q8NBP0)"}, "Renin receptor (human)": {"molecular_target": "Renin receptor (human) (UniProt O75787)"}, "[30]": {"molecular_target": "Cation-independent mannose-6-phosphate receptor (human) (UniProt P11717)"}, "[31]": {"molecular_target": "4F2 cell-surface antigen heavy chain (human) (UniProt P08195)"}}}
{"substance": "Avaren-Fc (AvFc) (Fc fusion)", "values": [{"measurement": "Percentage of Total Spectra (%)", "setting": "[1]", "value": 0.058, "unit": "%"}, {"measurement": "Percentage of Total Spectra (%)", "setting": "Filamin-A (human)", "value": 0.13, "unit": "%"}, {"measurement": "Percentage of Total Spectra (%)", "setting": "[2]", "value": 0.058, "unit": "%"}, {"measurement": "Percentage of Total Spectra (%)", "setting": "[3]", "value": 0.05, "unit": "%"}, {"measurement": "Percentage of Total Spectra (%)", "setting": "[4]", "value": 0.033, "unit": "%"}, {"measurement": "Percentage of Total Spectra (%)", "setting": "[5]", "value": 0.033, "unit": "%"}, {"measurement": "Percentage of Total Spectra (%)", "setting": "[6]", "value": 0.083, "unit": "%"}, {"measurement": "Percentage of Total Spectra (%)", "setting": "[7]", "value": 0.16, "unit": "%"}, {"measurement": "Percentage of Total Spectra (%)", "setting": "[8]", "value": 0.017, "unit": "%"}, {"measurement": "Percentage of Total Spectra (%)", "setting": "Nidogen-2 (human)", "value": 0.066, "unit": "%"}, {"measurement": "Percentage of Total Spectra (%)", "setting": "[9]", "value": 0.13, "unit": "%"}, {"measurement": "Percentage of Total Spectra (%)", "setting": "Agrin (human)", "value": 0.15, "unit": "%"}, {"measurement": "Percentage of Total Spectra (%)", "setting": "[10]", "value": 0.11, "unit": "%"}, {"measurement": "Percentage of Total Spectra (%)", "setting": "[11]", "value": 0.31, "unit": "%"}, {"measurement": "Percentage of Total Spectra (%)", "setting": "[12]", "value": 0.15, "unit": "%"}, {"measurement": "Percentage of Total Spectra (%)", "setting": "[13]", "value": 0.099, "unit": "%"}, {"measurement": "Percentage of Total Spectra (%)", "setting": "[14]", "value": 0.091, "unit": "%"}, {"measurement": "Percentage of Total Spectra (%)", "setting": "[15]", "value": 0.066, "unit": "%"}, {"measurement": "Percentage of Total Spectra (%)", "setting": "Integrin alpha-3 (human)", "value": 0.025, "unit": "%"}, {"measurement": "Percentage of Total Spectra (%)", "setting": "[16]", "value": 0.058, "unit": "%"}, {"measurement": "Percentage of Total Spectra (%)", "setting": "[17]", "value": 0.025, "unit": "%"}, {"measurement": "Percentage of Total Spectra (%)", "setting": "[18]", "value": 0.017, "unit": "%"}, {"measurement": "Percentage of Total Spectra (%)", "setting": "Integrin beta-5 (human)", "value": 0.12, "unit": "%"}, {"measurement": "Percentage of Total Spectra (%)", "setting": "[19]", "value": 0.35, "unit": "%"}, {"measurement": "Percentage of Total Spectra (%)", "setting": "[20]", "value": 0.058, "unit": "%"}, {"measurement": "Percentage of Total Spectra (%)", "setting": "[21]", "value": 0.033, "unit": "%"}, {"measurement": "Percentage of Total Spectra (%)", "setting": "[22]", "value": 0.21, "unit": "%"}, {"measurement": "Percentage of Total Spectra (%)", "setting": "[23]", "value": 0.0083, "unit": "%"}, {"measurement": "Percentage of Total Spectra (%)", "setting": "Serpin H1 (human)", "value": 0.058, "unit": "%"}, {"measurement": "Percentage of Total Spectra (%)", "setting": "[24]", "value": 0.13, "unit": "%"}, {"measurement": "Percentage of Total Spectra (%)", "setting": "[25]", "value": 0.033, "unit": "%"}, {"measurement": "Percentage of Total Spectra (%)", "setting": "[26]", "value": 0.066, "unit": "%"}, {"measurement": "Percentage of Total Spectra (%)", "setting": "[27]", "value": 0.21, "unit": "%"}, {"measurement": "Percentage of Total Spectra (%)", "setting": "[28]", "value": 0.83, "unit": "%"}, {"measurement": "Percentage of Total Spectra (%)", "setting": "[29]", "value": 0.11, "unit": "%"}, {"measurement": "Percentage of Total Spectra (%)", "setting": "Renin receptor (human)", "value": 0.066, "unit": "%"}, {"measurement": "Percentage of Total Spectra (%)", "setting": "[30]", "value": 0.44, "unit": "%"}, {"measurement": "Percentage of Total Spectra (%)", "setting": "[31]", "value": 0.091, "unit": "%"}]}
